Source: paper PMC4232355

Biological target: recombinant integrin αvβ3 (UniProt P06756)
Experiment: ELISA; integrin competitive binding assay: wells coated with 0.05 µg/well recombinant integrin αvβ3; 5 nM biotinylated-GRGDS with or without various peptides (20 nM) or serially diluted cyclic-(GRGDSP), 3 hr at room temperature, binding buffer with 1 mM MnCl2; bound biotinylated-GRGDS detected with streptavidin-HRP polymer

inhibitory activity of 20 nM peptide, as the equal concentration of cyclic-(GRGDSP) [nM] | inhibitory activity of 20 nM peptide, percent of that of 20 nM cyclic-(GRGDSP) [%] | Binder
3.3 | 16.5 | SRGDASYTSDESSDDDNDSDSH [N-opened RGD]
5.27 | 26.5 | SDESDTNSESANESGSRGDA [C-opened RGD]
